In article PMC3540032, “Comprehensive Analysis and Identification of the Human STIM1 Domains for Structural and Functional Studies” (PLoS ONE, 2013):

Target: T1, hSTIM1 S340-M490 (CAD-containing construct) (human, UniProt Q13586 340-490)
T1 construct: also called the CAD; source: E. coli Rosetta (DE3), purified (IMAC, SEC, IEX, low salt SEC)
Test: SPR; Biacore T200; Orai1 peptide immobilised on a CM5 chip by ligand thiol coupling at 1000 RU; analytes injected at 10 µM; HBS-EP buffer (20 mM HEPES, pH 7.4, 150 mM NaCl, 3.4 mM EDTA, 0.005% Polysorbate 20), 30 µL/min
Conditions: both partners purified

T1 sequence (Q13586 340-490): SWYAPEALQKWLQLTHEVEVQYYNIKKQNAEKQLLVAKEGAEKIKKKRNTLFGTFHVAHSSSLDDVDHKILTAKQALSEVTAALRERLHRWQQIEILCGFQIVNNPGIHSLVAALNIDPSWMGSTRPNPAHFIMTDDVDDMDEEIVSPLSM

binding result: binds
B1: Orai1 C-terminal peptide with an extra N-terminal Cys (peptide)
peptide: CRSLVSHKTDRQFQELNELAEFARLQDQLDHRGDHPLTPGSHYA
notes: extra Cys added to the N-terminus for immobilisation via thiol coupling; The added Cys is coupled to the CM5 chip by thiol coupling, which leaves the C-terminal end free; also called Orai1 C-terminus; Orai1 C-terminal domain; source: synthetic peptide (Peptide 2.0), purified by SEC (Superdex Peptide)
